This is an account of results in article PMC7160020 (Biochemistry, 2020).

Read-outs that look alike come from different tables or passages of the source.

For assay [1], the target named is RNR β2 (Escherichia coli) (UniProt P69924). The note with it: cited from earlier work.
The target is the same in assay [2]. The settings on record: cited from earlier work. The source holds these as a separate data set.
The target in assay [3] is T1, His6-α2 (E. coli class Ia ribonucleotide reductase α subunit, NrdA) (E. coli, UniProt P00452 1-761).
T1 sequence (looked up): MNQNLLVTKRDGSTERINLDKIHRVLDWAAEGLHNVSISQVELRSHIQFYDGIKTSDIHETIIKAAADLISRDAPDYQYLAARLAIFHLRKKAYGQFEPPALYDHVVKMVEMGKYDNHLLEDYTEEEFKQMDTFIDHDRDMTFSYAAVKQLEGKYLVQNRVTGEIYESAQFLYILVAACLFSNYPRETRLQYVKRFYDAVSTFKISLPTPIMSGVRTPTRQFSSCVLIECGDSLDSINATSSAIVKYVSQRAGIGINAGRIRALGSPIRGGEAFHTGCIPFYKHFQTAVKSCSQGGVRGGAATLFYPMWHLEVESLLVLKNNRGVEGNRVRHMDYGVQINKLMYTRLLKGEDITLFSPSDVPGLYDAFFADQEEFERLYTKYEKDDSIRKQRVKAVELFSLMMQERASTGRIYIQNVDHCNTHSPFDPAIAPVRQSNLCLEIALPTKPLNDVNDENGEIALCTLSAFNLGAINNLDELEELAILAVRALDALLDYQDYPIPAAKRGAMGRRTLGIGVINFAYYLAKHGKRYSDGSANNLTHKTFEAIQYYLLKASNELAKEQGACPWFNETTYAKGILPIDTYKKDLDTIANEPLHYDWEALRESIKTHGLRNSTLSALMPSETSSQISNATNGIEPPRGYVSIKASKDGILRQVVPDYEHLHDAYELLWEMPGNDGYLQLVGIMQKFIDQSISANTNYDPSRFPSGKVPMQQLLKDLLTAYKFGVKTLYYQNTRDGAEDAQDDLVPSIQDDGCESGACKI
The experiment in a line: stopped-flow fluorescence spectroscopy.

Assay [4] addresses dansyl-β2 (C268S/C305S/V365C-β2 labeled with BADAN) (E. coli). Put plainly: stopped-flow fluorescence spectroscopy.
The target is the same in assay [5]. Put plainly: stopped-flow fluorescence spectroscopy. This is another data set of the same source.
Assay [6] has the same target. Put plainly: stopped-flow fluorescence spectroscopy. This is another data set of the same source.
Assay [7] has the same target. The experiment in a line: stopped-flow fluorescence spectroscopy. The source holds these as a separate data set.

As a reminder, the Kd is the concentration at which binding is half-saturated. Take RNR α2 (from UniProt P00452): the Kd was 0.2 µM in assay [1] and 0.4 µM in assay [2].

B1: met-β2 (wt-β2 with the tyrosyl radical reduced by hydroxyurea) (enzyme, E. coli, UniProt P69924 1-376, looked up)
chain: MAYTTFSQTKNDQLKEPMFFGQPVNVARYDQQKYDIFEKLIEKQLSFFWRPEEVDVSRDRIDYQALPEHEKHIFISNLKYQTLLDSIQGRSPNVALLPLISIPELETWVETWAFSETIHSRSYTHIIRNIVNDPSVVFDDIVTNEQIQKRAEGISSYYDELIEMTSYWHLLGEGTHTVNGKTVTVSLRELKKKLYLCLMSVNALEAIRFYVSFACSFAFAERELMEGNAKIIRLIARDEALHLTGTQHMLNLLRSGADDPEMAEIAEECKQECYDLFVQAAQQEKDWADYLFRDGSMIGLNKDILCQYVEYITNIRMQAVGLDLPFQTRSNPIPWINTWLVSDNVQVAPQEVEVSSYLVGQIDSEVDTDDLSNFQL
modifications: diferric center, Y122• reduced by hydroxyurea
As for B1, the binding result in assay [3] is on record as “binds”.

B2: His6-α2 (E. coli class Ia ribonucleotide reductase α subunit, NrdA) (enzyme)
chain: T1 sequence (looked up)
What is called kon is the rate constant with which the complex forms. A lower kon goes with slower complex formation. As usually defined, the koff is the first-order rate constant of dissociation. Higher therefore signals fast dissociation. B2 yielded a kon in assay [4] of 1.79e+08 M⁻¹ s⁻¹. For the same molecule, the kon in assay [5] was 1.56e+08 M⁻¹ s⁻¹. Besides, the kon in assay [6] is 1.93e+08 M⁻¹ s⁻¹. In assay [7], this molecule registered a k dissoc, faster phase of the biexponential decay (α4β4 state, with dATP) of 7 s⁻¹; a k dissoc, slower phase of the biexponential decay (α4β4 state, with dATP) of 0.46 s⁻¹; a koff of 109 s⁻¹; a kon of 1.63e+08 M⁻¹ s⁻¹.
